Reference: patent US12391762B2, “Methods and compositions relating to GLP1R variants” (Twist Bioscience Corporation, priority 2020, dated 2025)
Positions count from the first letter of the chain named.

B1: GLP1R221-084: GLP1R-221 variant, optimized from GLP1R-3 (antibody, V domains shown)
VH: QVQLVESGGGVVQPGRSLRLSCAASGFAFSNYGMHWVRQAPGKGLEWVAVISSDENNKYYADSVKGRFTISRDNSKNTLYLQMNSLRAEDTAVYYCAKHMSMQEGAVTGEMQAAKEFIAWLVKGRVRADLVGDAFDVWGQGTLVTVSS
VL: QSVLTQPPSVSAAPGQKVTISCSGSSSNIADNYVSWYQQLPGTAPKLLIYENNRRPSGIPDRFSGSKSGTSATLGITGLQTGDEADYYCGTWDVSLSVGMFGGGTKLTVL
B2: GLP1R222-056: GLP1R-222 variant, optimized from GLP1R-3 (antibody, V domains shown)
VH: B1 VH with A28P, N31S, G33A, S53Y, E55R, N56S, E110Y, M111G, R125F
VL: B1 VL with A30G, D31S, V34I, E51D, N53D, R54K, S57A, V94T, M100E
B3: GLP1R221-065: GLP1R-221 variant, optimized from GLP1R-3 (antibody, V domains shown)
VH: B1 VH with A28T, S30N, G33A, S53Y, E55R, N56S, K58E, E110D, M111G
VL: B1 VL with S25T, S26T, D31N, Y33F, E51D, N52H, R54K, V94T, V98A, M100A
B4: GLP1R221-076: GLP1R-221 variant, optimized from GLP1R-3 (antibody, V domains shown)
VH: B1 VH with A28T, S30N, G33P, S53Y, N56T, M111G, R125I
VL: QSVLTQPPSVSAAPGQKVTISCSGTSSNIGNNDVSWYQQLPGTAPKLLIYENNKRHSGIPDRFSGSKSGTSATLGITGLQTGDEADYYCLTWDHSLTAYVFGGGTKLTVL
B5: GLP1R221-033: GLP1R-221 variant, optimized from GLP1R-3 (antibody, V domains shown)
VH: B1 VH with A28S, G33A, S53H, E55R, N56S, M111G, E116D
VL: B1 VL with A30G, D31N, N32E, E51D, R54K, P56V, G90A, V94T, S97N, M100V
B6: GLP1R222-052: GLP1R-222 variant, optimized from GLP1R-3 (antibody, V domains shown)
VH: B1 VH with A28T, S30N, G33P, S53Y, N56S, E110G, M111G
VL: B4 VL with T25S, N31K, N32R, D33S, E51D, H56A, L90V, H94R, T97S, Y99G
B7: GLP1R222-073: GLP1R-222 variant, optimized from GLP1R-3 (antibody, V domains shown)
VH: B1 VH with A28T, S30R, N31D, V50F, S52R, S53Y, N56I, M111G, K123G
VL: QSVLTQPPSVSAAPGQKVTISCSGSGSNIGNNDVSWYQQLPGTAPKLLIYDNNKRASGIPDRFSGSKSGTSATLGITGLQTGDEADYYCGTWDRGPNTGVFGGGTKLTVL
B8: GLP1R222-090: GLP1R-222 variant, optimized from GLP1R-3 (antibody, V domains shown)
VH: B1 VH with A28S, N31D, M34I, V50L, S53Y, D54E, E55G, N56S, M111K
VL: B1 VL with E51D, R54K, P56A, G90A, V94N, S95R, V98A, M100V
B9: GLP1R221-017: GLP1R-221 variant, optimized from GLP1R-3 (antibody, V domains shown)
VH: B1 VH with A28T, N31D, M34V, V50F, S53Y, N56S, M111Y
VL: B7 VL with G26S, N32T, D33Y, N52D, N53Y, A56P, G90A, R94A, G95T, P96L
B10: GLP1R222-012: GLP1R-222 variant, optimized from GLP1R-3 (antibody, V domains shown)
VH: B1 VH with A28T, S30N, S53D, D54E, E55G, N56S, E110V, M111G
VL: B1 VL with A30G, D31N, Y33D, E51D, N52D, N53D, R54K, V94T, M100E
B11: GLP1R222-082: GLP1R-222 variant, optimized from GLP1R-3 (antibody, V domains shown)
VH: B1 VH with A28T, N31A, G33S, V50L, S53Y, E55A, N56T, M111F
VL: B7 VL with G26S, N31S, N32K, D33Y, A56P, R94I, G95S, N97S, T98A, G99W
B12: GLP1R221-066: GLP1R-221 variant, optimized from GLP1R-3 (antibody, V domains shown)
VH: B1 VH with A28T, S30N, G33A, S53Y, E55R, N56S, K58E, M111G, A114I
VL: B1 VL with A30G, D31N, V34L, R54K, T91I, V94R, V98A, G99W, M100V
B13: GLP1R221-075: GLP1R-221 variant, optimized from GLP1R-3 (antibody, V domains shown)
VH: B1 VH with A28T, G33P, S53Y, N56T, M111G, R125I
VL: B7 VL with N53D, A56P, S57A, R94T, G95S, P96L, N97S, T98N, G99Y
B14: GLP1R222-081: GLP1R-222 variant, optimized from GLP1R-3 (antibody, V domains shown)
VH: B1 VH with A28T, S30D, G33A, M34L, V50L, S53Y, E55A, N56G, M111G, R125F
VL: QSVLTQPPSVSAAPGQKVTISCSGSSSNIGSDYVSWYQQLPGTAPKLLIYDNNKRSSGIPDRFSGSKSGTSATLGITGLQTGDEADYYCGTWDESLRSWVFGGGTKLTVL
B15: GLP1R222-023: GLP1R-222 variant, optimized from GLP1R-3 (antibody, V domains shown)
VH: B1 VH with A28S, N31D, V50F, S53Y, E55A, M111W
VL: B7 VL with G26S, D51E, N53T, A56P, R94A, P96L, N97S
B16: GLP1R221-092: GLP1R-221 variant, optimized from GLP1R-3 (antibody, V domains shown)
VH: B1 VH with A28I, S30N, V50F, S53Y, D54G, E55G, N56S, M111G, A114V
VL: B1 VL with S25T, S26T, D31N, Y33F, E51D, R54K, S57P, V94T
B17: GLP1R221-009: GLP1R-221 variant, optimized from GLP1R-3 (antibody, V domains shown)
VH: B1 VH with A28I, S53D, D54E, E55G, N56S, E110A, M111G
VL: B1 VL with A30G, D31N, N32Q, E51D, N52D, N53H, R54K, V94T, M100E
B18: GLP1R222-014: GLP1R-222 variant, optimized from GLP1R-3 (antibody, V domains shown)
VH: B1 VH with A49S, V50F, S53Y, N56S, S85N, M111W
VL: B4 VL with T25S, N32H, E51D, L90G, H94T, T97S, Y99G
B19: GLP1R221-034: GLP1R-221 variant, optimized from GLP1R-3 (antibody, V domains shown)
VH: B1 VH with A28P, S53H, E55R, N56S, M111G, A114V
VL: B7 VL with G26S, D33P, D51E, N53D, K54N, A56P, G90A, P96L, N97S

Test system: CHO-parent cells
Assay: Flow cytometry binding assay on CHO-parent cells (background binding)
Parameters: species or system Chinese Hamster
Procedure: GLP-1R IgG clones were tested in a binding assay coupled to flow cytometry analysis as follows: FLAG-GLP-1R-GFP expressing CHO cells (CHO-GLP-1R) and CHO-parent cells were incubated with 100 nM IgG for 1 h on ice, washed three times and incubated with Alexa 647 conjugated goat-anti-human antibody (1:200) (Jackson ImmunoResearch Laboratories, 109-605-044) for 30 min on ice, followed by three washes, centrifuging to pellet the cells between each washing step. All incubations and washes were in buffer containing PBS+1% BSA. For titrations, IgG was serially diluted 1:3 starting from 100 nM down to 0.046 nM. Cells were analyzed by flow cytometry and hits (a hit is an IgG that specifically binds to CHO-GLP-1R) were identified by measuring the GFP signal against the Alexa 647 signal. Flow cytometry data of binding assays with 100 nM IgG are presented as dot plots. Analyses of binding assays with IgG titrations are presented as binding curves plotting IgG concentrations against MFI (mean fluorescence intensity).

Molecule	Median RL1-H of Parent Singlets (Table 6C, GLP1R-221 variants)	Bmax CHO Parent (Table 6E, IgG titration)	Median RL1-H of Parent Singlets (Table 6D, GLP1R-222 variants)	Bmax CHO Parent (Table 6F, IgG titration)	EC50 (Table 6F, IgG titration) [nM]
B1	207	266.6			
B2			230	237.5	
B3	298	261.9			
B4	316	183.2			
B5	236	146			
B6			27565.5	47529	
B7			229	228.4	
B8			432	413.4	
B9	162	228.7			
B10			290.5	340.6	
B11			315	305	
B12	240	112.1			
B13	206	234			
B14			260	243.4	
B15			310	237.9	89.4
B16	326	291.2			
B17	197	267.4			
B18			299	336.4	
B19	314	279.8			
